Reference: patent CN113583116A (YANG SHENG TANG CO LTD; UNIV XIAMEN, dated 2021)

B1: 小鼠单克隆抗体2B4 (antibody, V domains shown)
VH: QVQLQQPGAELVRPGASVKLSCKASGYTFTSYWMNWVKQRPEQGLEWIGRIDPYDSETHYNQKFKDKAILTVDKSSTTAYMQLSSLTSEDSAVYYCARWGTVEWFFDYWGQGTTLTVSQ
VL: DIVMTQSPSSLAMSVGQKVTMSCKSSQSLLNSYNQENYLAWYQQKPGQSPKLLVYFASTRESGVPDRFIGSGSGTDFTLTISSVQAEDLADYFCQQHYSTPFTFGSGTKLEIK
B2: 小鼠单克隆抗体36H6 (antibody, V domains shown)
VH: EVQLQQSGPELVNPGASVKISCKTSGYTFTEYTMHWVKQSHGKSLEWIGGINPNNGDTIYNQKFKGKATLTVDKSSSTAYMELRSLTSEDSAVFYCAREGDYYVSSYGYWGQGTTLTVSS
VL: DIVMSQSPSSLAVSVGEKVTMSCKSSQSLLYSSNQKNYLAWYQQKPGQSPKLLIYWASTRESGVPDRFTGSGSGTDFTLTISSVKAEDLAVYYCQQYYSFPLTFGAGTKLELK

Legend:
[1] = target: T1, SARS-CoV-1的RBD重组蛋白 SARS-CoV1-RBD (SARS-CoV-1, UniProt P59594 306-527)
[2] = target: T1, SARS-CoV-1的RBD重组蛋白 SARS-CoV1-RBD; assay: indirect ELISA, RBD coated at 2 μg/mL, antibody at 10, 1, 0.1 and 0.01 μg/mL

| Binder | Kd [1] [nM] | binding result [2] |
| --- | --- | --- |
| B1 | 34.1 |  |
| B2 |  | no binding (tested: 10μg/mL) |
